Source: patent US20130122568

Assays:
Experiment in all cases: cleavage_in_vitro
BstXI-HF N65A = conditions: NEB2, 55 C
[1] = test system: T1, BsmBI (Bacillus stearothermophilus); conditions: NEB3, 55 C
T1 sequence: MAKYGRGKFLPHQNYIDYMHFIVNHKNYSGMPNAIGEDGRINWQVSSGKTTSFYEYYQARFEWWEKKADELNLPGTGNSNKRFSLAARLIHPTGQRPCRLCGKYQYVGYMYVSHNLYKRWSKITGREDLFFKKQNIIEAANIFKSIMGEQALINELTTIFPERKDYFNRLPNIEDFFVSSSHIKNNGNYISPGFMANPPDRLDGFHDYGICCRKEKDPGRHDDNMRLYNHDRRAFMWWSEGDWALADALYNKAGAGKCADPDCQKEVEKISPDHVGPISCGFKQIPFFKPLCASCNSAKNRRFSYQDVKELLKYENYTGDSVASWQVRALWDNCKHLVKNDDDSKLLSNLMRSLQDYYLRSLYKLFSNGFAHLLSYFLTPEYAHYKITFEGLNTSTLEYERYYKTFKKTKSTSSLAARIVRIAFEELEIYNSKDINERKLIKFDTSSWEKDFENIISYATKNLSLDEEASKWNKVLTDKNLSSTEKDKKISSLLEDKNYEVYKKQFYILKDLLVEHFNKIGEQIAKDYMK

[2] = molecular target: T2, BamHI-HF E163A/E167T (Bacillus amyloliquefaciens) (UniProt P23940); conditions: NEB1, 37 C
T2 sequence: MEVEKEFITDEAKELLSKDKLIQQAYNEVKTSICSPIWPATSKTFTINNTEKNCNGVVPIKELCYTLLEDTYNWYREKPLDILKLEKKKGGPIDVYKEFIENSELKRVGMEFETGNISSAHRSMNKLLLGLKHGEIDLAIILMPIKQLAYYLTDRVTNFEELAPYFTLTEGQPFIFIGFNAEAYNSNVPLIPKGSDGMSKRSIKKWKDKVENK

[3] = test system: T3, NcoI-HF A2T/R31A (Nocardia corallina); conditions: NEB4, 37 C
T3 sequence: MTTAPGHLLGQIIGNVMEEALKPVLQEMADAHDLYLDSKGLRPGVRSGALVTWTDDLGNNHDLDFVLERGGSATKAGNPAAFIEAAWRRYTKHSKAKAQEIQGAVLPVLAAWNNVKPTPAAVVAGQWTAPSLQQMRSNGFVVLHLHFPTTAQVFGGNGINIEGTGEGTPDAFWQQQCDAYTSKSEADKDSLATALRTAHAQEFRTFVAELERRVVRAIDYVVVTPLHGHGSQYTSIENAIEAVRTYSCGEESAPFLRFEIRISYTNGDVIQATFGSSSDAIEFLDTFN

[4] = test system: T4, BspQI (Bacillus sphaericus); conditions: NEB3, 50 C
T4 sequence: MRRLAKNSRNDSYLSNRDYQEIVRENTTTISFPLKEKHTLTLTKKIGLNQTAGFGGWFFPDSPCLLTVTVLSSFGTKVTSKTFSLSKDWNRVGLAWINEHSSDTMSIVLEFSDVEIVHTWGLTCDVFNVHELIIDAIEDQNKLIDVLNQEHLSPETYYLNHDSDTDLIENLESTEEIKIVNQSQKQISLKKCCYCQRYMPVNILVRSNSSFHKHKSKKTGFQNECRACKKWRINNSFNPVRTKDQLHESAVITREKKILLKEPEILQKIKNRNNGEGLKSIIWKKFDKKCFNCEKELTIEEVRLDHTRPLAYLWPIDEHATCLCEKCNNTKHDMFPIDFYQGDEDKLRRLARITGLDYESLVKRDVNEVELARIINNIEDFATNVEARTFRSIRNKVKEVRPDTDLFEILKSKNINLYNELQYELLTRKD

[5] = molecular target: T5, ScaI-HF H193A/S201F (Streptomyces caespitosus) (UniProt O52691); conditions: NEB2, 37 C
T5 sequence: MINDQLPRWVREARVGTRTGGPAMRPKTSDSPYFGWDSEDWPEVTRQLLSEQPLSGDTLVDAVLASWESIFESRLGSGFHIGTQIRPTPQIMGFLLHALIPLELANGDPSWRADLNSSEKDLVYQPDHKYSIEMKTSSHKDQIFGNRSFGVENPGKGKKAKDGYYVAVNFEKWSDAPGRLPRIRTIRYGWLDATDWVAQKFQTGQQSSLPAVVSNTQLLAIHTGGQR

[6] = test system: T6, SphI (Streptomyces phaeochromogenes); conditions: NEB1, 37 C
T6 sequence: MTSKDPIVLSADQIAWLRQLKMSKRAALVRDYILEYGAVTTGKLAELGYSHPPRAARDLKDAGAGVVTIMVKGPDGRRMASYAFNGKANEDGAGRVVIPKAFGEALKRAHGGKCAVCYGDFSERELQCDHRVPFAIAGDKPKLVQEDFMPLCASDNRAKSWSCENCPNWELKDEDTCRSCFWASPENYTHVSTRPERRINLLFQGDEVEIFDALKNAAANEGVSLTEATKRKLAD

Substance: lambda phage DNA
- activity (fidelity index) (BstXI-HF N65A): > 250
- activity (fidelity index) [1]: 120
- activity (fidelity index) [2]: > 4000
- activity (fidelity index) [3]: > 64000
- activity (fidelity index) [4]: 32
- activity (fidelity index) [5]: 1000
- activity (fidelity index) [6]: 64
